According to article PMC7128310, “Negative Regulation of TLR Signaling by BCAP Requires Dimerization of Its DBB Domain” (The Journal of Immunology Author Choice, 2020):

Molecular target: the molecule itself
Assay: SEC-MALS; 50 μl at 2 mg/ml on Superdex 200 Increase 10/300 GL

B1: BCAP DBB-ANK (residues 179-404) (domain or fragment, human, UniProt Q6ZUJ8 179-404, looked up)
chain: MVVQPDRIRCGAETTVYVIVRCKLDDRVATEAEFSPEDSPSVRMEAKVENEYTISVKAPNLSSGNVSLKIYSGDLVVCETVISYYTDMEEIGNLLSNAANPVEFMCQAFKIVPYNTETLDKLLTESLKNNIPASGLHLFGINQLEEEDMMTNQRDEELPTLLHFAAKYGLKNLTALLLTCPGALQAYSVANKHGHYPNTIAEKHGFRDLRQFIDEYVETVDMLKSH
notes: B cell adaptor protein (BCAP), human, DBB and ANK domains, residues 179-404; Cloned into pMCSG7 or pMCSG9; source: E. coli BL21(DE3), purified (Ni-NTA, TEV, Superdex 200)
For B1, which “stoichiometry N” value is on record?
The value was 2.
